For 16 sequences, protein production results are on record in a protein production outcome set (Wang et al. 2014).

The data set in a line: label from the status in PepcDB records.
As for “MKVTVVSRSGREVLKAPLDLPDSATVADLQEAFHKRAKKFYPSRQRLTLPVTPGSKDKPVVLNSKKSLKEYCDGNNNSLTVVFKDLGAQVSYRTLFFFEYLGPLLIYPVFYYFPVYKFLGYGEDCVIHPVQTYAMYYWCFHYFKRILETFFVHRFSHATSPIGNVFRNCAYYWSFGAYIAYYVNHPLYTPVSDLQMKIGFGFGLVCQVANFYCHILLKNLRDPSGAGGYQIPRGFLFNIVTCANYTTEIYQWLGFNIATQTIAGYVFLAVAALIMTNWALGKHSRLRKIFDGKDGKPKYPRRWVILPPFL”, the protein production result is listed as “failed”.
Regarding “MAEKALATLKELAFLEDPSPVERDAAIQRFEYTFEAFWKALQAYLREKEGLEGASPKGVIRLAREVGLLRDEEARLALGMVDDRSLTVHTYNEPLARAIFRRLPDYARLMEQVLGRLRR”, the protein production result is “not failed”.
Under “MQIKEIFMIRCISCLSVVLLHIISMVLMLQAEALADISHTVDSFRTLLMFSTPAFIFISEFLLARSYPDGVPDGFLKKRGKVIFVPFLFIAAIDALLMTSAMGGEVTFLAFVQKYLANVFLGNFIGYFILVIFQFYMLHMMFHEYLKKASPKWVLSISFVVTAAYLGYFSAASPAPASEEGGAFPFFWVPFAGWLFYFCLAYYCGKEYKRFLALLNQYRWVVYGAAIASGALVVTVSYVGEIGMISSKRPDIMLYSTSMIFLCFHLFSKMKHVPKIMMFISNYSFSIYLLHAYFMIIGYVLLLNMPEIPAVPAVLLLFAVCTAGPIMTSWALNKFKYGYLFVGKIYQPKQKKVTVEVRDHAG” stands “failed”; under “MADIIGLLLPFFGLIFIGYGAARITKQPVEAMGWLNTFIIYAALPALFFKLVSKTPVEELARMDFVAASLACTYGIFLAVFLIGRFVRRNSLAETTIQSFAASYGNIGYMGPGLALLALGEKAAVPVALIVCLENAAHFIVAPAMMAVAGGDKRSAGKLALDVARKVITHPFIVSVIAGFLAASLSWQPPEAVQRLVDYLAQSAAPCALFAMGVTLALRPMKRVPVEISYIVPAKLILHPLAAYLVLSSLGRFEPVWIYSAVLLAALPTATNVFVIGQQYHVWQERASATILISTVLSVFTLTGVVYFIQPF”, “failed”.
As to “MSLDSALRSRIETLLHSNRVVLFMKGRPGMPQCGFSAKAAGILQALGVEYAHVNVLDDQEIREGIKRYGDWPTIPQLYIDGELIGGSDIVSQMYENGELSTLLGVAAPDLTPPSITITPTAVEMLKGTLANAPGSTLALSIDSRFQPTFELAPINTQAIAAEYNGLRVQFDLASARRAEGITIDWVDDIRGQGLVIDNPNAPQPIQELSPGDAAAQVDAGVLTLVDVRPADERAVASVAVPFRTMDGGERAVLEQLPKGTPLAFLCHHGGRSLQAAEHFRSLGFTSIYNIGGGIDAWSTQVDPGVPKY”, the protein production entry is “failed”.
Regarding “MGYRRFLQLVAHEFFHLWNVKRIRPKALEQFDYEAENYTPSLWFSEGATSYYDLLLPLRAGLYGVDSFLEALGKDLSRYLTTPGRKVQPLAESSFDAWVKLYRRDAYSDNQQMSYYLKGQLVCWLLDLEIRNHQPDLEHHHHHH”, the protein production entry is listed as “not failed”.
Under “MIFAFVFDRDYYSLGLVLLALFSAQSPYGGLSLEIYLKSCRIQQNYTRLNTMKLRLPHAPYVANKIALDLVSSGYIELGSNMEKISQIAKHFLEENIKKEAALEEKVRLLLEANLEEIEFLRVDERQFFWMAKKKLAEEEGFILAKDDRYSHLSHQILDELIKEEVIDFGVSDTIIKNVIFKAIDGYVKIYESIEDVVIEKIENYKRKIIAGTEEYDMVFEKLYEEELKKRGFL” stands “failed”; under “MQAQDATQLLEGVPLPLVLIGPDERIRAANAPAQRLFGAASVARHYVMAMRQPALLDAIEGAIRLDRPGRARYIITGPSREVTYRATVTPVRIHGESCALCAFEDITEQEQMGAIRRDFVANVSHELRTPLTALLGFIETLQGAARDDPAARSRFLGIMAREAGRMNRLVQDLLSLSRVESEERVRPKTPVDVTAVIGQAIAALRPMAEAAGVEIQRQGEAGPILLPGDPDQLTQVFHNLIENAVKYGASGKLVTVGISRDAEGLARLGPAVRIEVVDRGEGIDAIHLPRLTERFYRVDNHRSREKGGTGLGLAIVKHIVNRHRGRFLIESELGQGSRFIVTLPLA”, “failed”; under “MSVQLSEGQTFGPRAINVTRTTLVRYAGASGDFNPIHYSDRAAREAGMDGVIAHGMWTMGAALGTVIDWVGGPERVVSQRARFTRPVQVPDTEGGTAIEVAATVRKVSEEAATLAVDVKCDGQSVLGRVEVVVRQGEQ”, “failed”.
As to “MWSSREIEDLGLTFAIAIDKGKETNTEKELKEEGGSYPKKDNITLTYQFVNEKAAGAGTSGGGGSGQGAQKAYINISETGDSLQQIGSEVALRRDREVFSPHLKVVVMSEDVLHTFPIDEMLDQFFRDNEIRLSCLVLSAKGEARDALQLKENGEIPAFRLIGLGENEHKVSRILPPMTLAKLIGKLHSGSSFLLQNVVAANGAVKYSGAAVINGKSKKMIGTLNEYETEGITWIRGEGKGGVVKSHDKKSQQTLAYDINKIKSRIQPIVKGKDISFHVDIESEGDLVENWNTKEALDTQFIDRLETTIENEVKKIVGQVLKKIQHDYKADVAGFDESFRLTYPHLWKRVKNNWDDTFSKADITYSVNVTITHFGTVKTQLEHHHHHH”, the protein production result is given as “not failed”.
“MEATEKLREKPIKSLFISYLIPAVLGMVLMSVNIVIDAVMISRGVGANGLAGVNVAIPAFSIFFSISLWIGMGGATLYSIALGENKRERARSIFTQSMTVAVVIVGILAAICLWRIEDLAYLFGANEVILPYALDYLHVLLTFGMIYVLENILSTFIRNDGNPNLAMAGLVVTAVLNIVFDYIFIFIFGWGVTGAASATILSAAIGFLVLLTHFFRKSSILKWTKFHFEWDTVKQIMVIGFPSFTAESTVAIVTIGFNIAFVQYAGEVGVASYAMVNSIHAMTLLLFFGVGAALQPIASFHYGANLSERLREGLKFAVKIAVVLGGIAIIVGLFFGKYIIGLFDVQSPELLELTLTGISLFFIQYVFLGYNIVYGEYFQSVRQTKKSVLIIMSRGLLFIIPLLWIMPKLFGINGIWLVMPVAEVMTAIIVFTMNRMKHPVPLNMAGEKEAI”: the protein production result was “not failed”.
With “MQTKKAFLYVFNTMSDWEYGYLIAELNSGRYFKKDLAPLKVITVGANKEMITTMGGLRIKPDISLDECTLESKDLLILPGGTTWSEEIHQPILERIGQALKIGTIVAAICGATDALANMGYLDTRKHTSNNLEYTKMVCPNYKGEKFYELGPAVSDANLVTASGIAPLEFAMEVLKKIDVFTLDALHSWYNLNKTHKPEYFFQLMNSINK”, the protein production entry is on record as “not failed”.
“MGKSDFLSPKAIANRIKSKGLQKLRWYCQMCQKQCRDENGFKCHCMSESHQRQLLLASENPQQFMDYFSEEFRNDFLELLRRRFGTKRVHNNIVYNEYISHREHIHMNATQWETLTDFTKWLGREGLCKVDETPKGWYIQYIDRDPETIRRQLELEKKKKQDLDDEEKTAKFIEEQVRRGLEGKEQETPVFTELS”: the protein production result is “not failed”.
Under “MNFSESFKLSGLLCRFSPDGKYLASCVQYRLVIRDVTTLQILQLYTCLDQIQHIEWSADSLFILCAMYRRGLVQVWSLEQPEWHCKIDEGSAGLVASCWSPDGRHILNTTEFHLRITVWSLCTKSVSYIKYPKACQQGLTFTRDGRYLALAERRDCRDYVSIFVCSDWQLLRHFDTDTQDLTGIEWAPNGCVLAAWDTCLEYKVLLYSLDGRLLSAYCAYEWSLGIKSVAWSPSSQFLAIGSYDGKVRLLNHVTWKMITEFGHPATINNPKTVVYKEAEKSPLLGLGHLSFPPPRAMAGALSTSESKYEIASGPVSLQTLKPVADRANPRMGVGMLAFSSDSYFLASRNDNVPNAVWIWDIQKLKLFVVLEHMSPVRSFQWDPQQPRLAICTGGSKVYLWSPAGCVSVQVPGEGDFPVLGLCWHLSGDSLALLSKDHFCLCFLETKERVGTAYEQRDGMPRT” stands “failed”; under “MFEKQFNHRTLETSLGPVEIEGPVTSQILATYKLDPGLTAFRQPAEQHEALVEIAALEEGRIIIARQGNDIIGYVTFLYPDPYETWSEGNNPYILELGAIEVAARFRGQQIGKKLLEVSMLDPAMEHYLILTTEYYWHWDLKGSGLSVWDYRKIMEKMMNHGGLVFFPTDDPEIASHPANCLMARIGKHVAPEVVAHFDALRLRRRFMYD”, “not failed”; under “MALKTDIRGMIWRYPDYFIVGREQCREFARAVKCDHPAFFSEEAAADLGYDALVAPLTFVTILAKYVQLDFFRHVDVGMETMQIVQVDQRFVFHKPVLAGDKLWARMDIHSVDERFGADIVVTRNLCTNDDGELVMEAYTTLMGQQGDGSARLKWDKESGQVIRTALEHHHHHH”, “failed”.
